Measurements as given in patent US20240327530A1 (ICHNOS SCIENCES, published 2024).

Legend:
[1] = target: T1, Human IL-1RAP, membrane-bound on human cells (HaCaT, dermal fibroblasts, neutrophils, PBMC, whole blood) (human, UniProt Q9NPH3 21-570); test: flow cytometry on normal human fibroblasts, nonlinear sigmoidal regression
T1 construct: Endogenous protein on cells
T1 sequence: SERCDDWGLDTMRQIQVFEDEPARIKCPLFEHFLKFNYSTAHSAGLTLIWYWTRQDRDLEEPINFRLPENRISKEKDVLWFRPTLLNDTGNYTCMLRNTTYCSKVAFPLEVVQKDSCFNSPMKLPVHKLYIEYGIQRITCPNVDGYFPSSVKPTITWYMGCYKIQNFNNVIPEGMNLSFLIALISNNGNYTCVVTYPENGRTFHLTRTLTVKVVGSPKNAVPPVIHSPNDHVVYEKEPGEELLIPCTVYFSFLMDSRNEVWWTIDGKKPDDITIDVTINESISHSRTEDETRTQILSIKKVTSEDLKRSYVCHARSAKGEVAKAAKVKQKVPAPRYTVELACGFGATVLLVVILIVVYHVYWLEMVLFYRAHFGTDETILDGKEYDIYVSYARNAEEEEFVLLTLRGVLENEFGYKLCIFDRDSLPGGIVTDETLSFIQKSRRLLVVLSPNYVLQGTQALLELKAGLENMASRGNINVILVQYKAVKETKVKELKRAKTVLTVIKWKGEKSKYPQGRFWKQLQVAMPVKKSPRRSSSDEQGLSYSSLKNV
Method: (§1) Bound antibodies were detected with a monoclonal anti-human IgG PE-Cyanine7 secondary antibody. The graphs show the nonlinear sigmoidal regression binding curves (Relative Geometric Mean Fluorescence Intensity) for each cell lines. Each data point is a measurement for a given cell line. Multiple independent experiments were performed across several donors (HaCaT and HaCaT IL-1RAP KO: 4 and 3 independent experiments; Human Dermal Fibroblasts: 2 independent experiments—total of 5 donors; Human Neutrophil: 2 experiments—total of 6 donors; Cyno Dermal Fibroblasts: 2 independent experiment—total of 4 donors).
In brief, cells were harvested, counted, and plated at 50,000 cells/well in a 96-well round-bottom plate. The plate was centrifuged at 350 g for 3 minutes and the cells were resuspended in 50 μl of FACS® buffer (PBS (1×)+2.5% FCS+2 mM EDTA+0.05% NaN₃) containing various concentrations (ranging from 50 to 0.00003 μg/ml) of either anti-human IL-1RAP_candidate_1 or Isotype control_5 antibodies. […] The cells were gated based on size on FSC vs SSC and analyzed for PE-Cyanine7-geometric mean (geomean) fluorescence intensity using FLOWJO® software. Finally, relative geomean fluorescence intensity was calculated by subtracting fluorescence of anti-human IL-1RAP_candidate_1 per fluorescence of Isotype control_5. […]

[2] = target: T1, Human IL-1RAP, membrane-bound on human …; test: flow cytometry on human neutrophils, anti-human IgG PE-Cyanine7, relative geometric MFI (isotype subtracted)
Method: as §1, with “A dose-response of anti-human IL-1RAP_candidate_1 (●) or Isotype control_5 (▪) was incubated with various cell lines and cell types. Bound” for “Bound”
(§2) In brief, cells were harvested, counted, and plated at 50,000 cells/well in a 96-well round-bottom plate. […] The cells were gated based on size on FSC vs SSC and analyzed for PE-Cyanine7-geometric mean (geomean) fluorescence intensity using FLOWJO® software. Finally, relative geomean fluorescence intensity was calculated by subtracting fluorescence of anti-human IL-1RAP_candidate_1 per fluorescence of Isotype control_5. […]

[3] = target: T1, Human IL-1RAP, membrane-bound on human …; test: flow cytometry on HaCaT cell line, nonlinear sigmoidal regression
Method: In brief, cells were harvested, counted, and plated at 50,000 cells/well in a 96-well round-bottom plate. The plate was centrifuged at 350 g for 3 minutes and the cells were resuspended in 50 μl of FACS® buffer (PBS (1×)+2.5% FCS+2 mM EDTA+0.05% NaN₃) containing various concentrations (ranging from 50 to 0.00003 μg/ml) of either anti-human IL-1RAP_candidate_1 or Isotype control_5 antibodies. Stained cells were incubated for 30 minutes at 4° C., washed twice with FACS® buffer at 350 g for 3 min and resuspended in […] of a monoclonal anti-human IgG PE-Cyanine7 secondary antibody (Biolegend, 409316) diluted 1/200 in FACS® buffer. Cells were then washed twice and resuspended in 200 μl of FACS® buffer containing SYTOX® Green dead cell stain (THERMO FISHER […]®, S34860) and samples were acquired on a CYTOFLEX® instruments (Beckman Coulter). The cells were gated based on size on FSC vs SSC and analyzed for PE-Cyanine7-geometric mean (geomean) fluorescence intensity using FLOWJO® software. Finally, relative geomean fluorescence intensity was calculated by subtracting fluorescence of anti-human IL-1RAP_candidate_1 per fluorescence of Isotype control_5. As depicted in FIGS. 6A, 6B, 6C, 6D, and 6E, anti-human IL-1RAP_candidate_1 antibody recognizes membrane-bound IL-1RAP expressed on HaCaT cell line and all primary cells. Multiple independent experiments were performed using multiple donors. […]

[4] = target: T1, Human IL-1RAP, membrane-bound on human …; test: flow cytometry on HaCaT wild-type cells, anti-human IgG PE-Cyanine7, relative geometric MFI (isotype subtracted)
Method: as §1, with “A dose-response of anti-human IL-1RAP_candidate_1 (●) or Isotype control_5 (▪) was incubated with various cell lines and cell types. Bound” for “Bound”
as §2

B1: Anti-IL-1RAP-C8-RecC-ES-IgG1LALA (antibody, V domains shown)
VH: QVQLVQSGAEVKKPGSSVKVSCKASGSPAEPYAIQWVRQAPGQGLEWMGYIIPSLGGYDYAQKFQGRVTITADESTSTAYMELSSLRSEDTAVYYCARGQTLYESGRQFDIWGQGTLVTVSS
VL: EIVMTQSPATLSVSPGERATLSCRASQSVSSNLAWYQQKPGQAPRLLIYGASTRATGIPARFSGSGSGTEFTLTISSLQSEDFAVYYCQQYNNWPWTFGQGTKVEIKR
notes: also called ISB 880-C8-recC-ES
Kd [1]: 3.1 nM
EC50 (read off the curve) [2]: ~0.2 µg/mL
Kd [3]: 0.75 nM
EC50 (read off the curve) [4]: ~0.1 µg/mL
